{"source": "paper PMC11860714", "target": "329 SOSIP.v8.2 Env trimer (HIV-1 clade C)", "experiment": "native gel or EMSA; BN-PAGE, NuPAGE 4–12% Bis-Tris gels; 2 µg SOSIP trimers or equimolar SOSIP–ferritin (2.5 µg) and SOSIP-I53-50 (3.2 µg) NPs"}
{"substance": "329 SOSIP.v8.2 Env trimer (domain or fragment)", "values": [{"measurement": "stoichiometry N", "value": 3}]}
